Laboratory results reported in patent US20040259176A1, “Structural basis for the guanine nucleotide-binding activity of tissue transglutaminase and its regulation of transamidation activity” (priority 2003, published 2004).

Legend:
Assay type in all cases: cell-based, human
SKBR3 cells [1] = assay: Nuclear condensation or blebbing assay (doxorubicin-induced apoptosis); details: SKBR3 cells stimulated with EGF (100 ng/ml) for 2 days prior to doxorubicin; FIG. 11B
Procedure: FIGS. 1A-D illustrate that the protective effect of EGF from doxorubicin-induced apoptosis is blocked by MDC in SKBR3 cells. In FIG. 11A, nearly confluent cultures of SKBR3 and MDAMB231 cells were placed in low serum medium. The following day, the cells were exposed to low serum medium +/−0.25 μM doxorubicin (Dox) for the times indicated and subsequently lysed. The presence of the activated form of caspase 3 (cleaved caspase 3) and actin (actin) in the cell extracts was assessed by Western blot analysis. In FIG. 11B, SKBR3 and MDAMB231 cells were maintained in low serum medium (0) or treated with 10 μM MDC (MDC) for 1.5 days. […] All cell cultures were then treated with +/−0.25 μM doxorubicin (Dox) for about 1 day and the cells were scored for programmed cell death as described in Example 13. […]
NIH3T3 cells were grown in Dulbecco's modified Eagle's medium containing 10% calf serum and 100 units/ml penicillin. […] Protein concentrations were determined using the Bio-Rad DC protein assay.
Cells were seeded in 6-well dishes and grown in complete medium for 2 days. […] The cultures were then incubated with fresh medium containing RA, EGF, and MDC and +/−0.2 μM doxorubicin for an additional 1.5 days and were fixed and stained with 4,6-diamidino-2-phenylindole (2 μg/ml) for viewing by fluorescence microscopy. […]

[2] = system: tissue transglutaminase (TG); assay: TG expression by Western blot in SKBR3 cells; details: 5 μM RA or 100 ng/ml EGF for 2 days, FIG. 9A
Procedure: Cells were grown for 2 days in complete media and subsequently placed in low serum. The following day, cells were left untreated (0), treated with 5 μM RA (RA), 100 ng/ml EGF (EGF), or co-treated with 5 μM RA and 100 ng/ml EGF (RA/EGF) for 2 days and then lysed. In FIG. 9A, the cell extracts were used to determine TG GTP-binding activities (GTP-TGase) using an affinity-labeling assay with radioactive GTP as outlined in Example 11. Western blot analysis using TG and actin antibodies was performed to assess the expression levels of each of these proteins (TGase and actin). In FIG. 9B, the same cell lysates were assayed for TG transamidation activities as determined by the incorporation of 5-(biotin-amido) pentylamine into proteins as described in Example 12. The experiments were conducted in triplicate, quantitated, and the values from each experiment were averaged together and plotted. In FIG. 9C, SKBR3 cells were seeded at 1×10^5 cells/well and grown in low serum medium +/−5 μM RA and +/−100 ng/ml EGF for the times indicated and then counted. The results from three independent growth assays were averaged together and plotted. […]
NIH3T3 cells were grown in Dulbecco's modified Eagle's medium containing 10% calf serum and 100 units/ml penicillin. […] Protein concentrations were determined using the Bio-Rad DC protein assay. […]

[3] = system: tissue transglutaminase (TG); assay: TG GTP-binding activity by photoaffinity labeling with [α-32P]GTP in SKBR3 cell lysates; details: SKBR3 cells, 5 μM RA or 100 ng/ml EGF for 2 days; FIG. 9A
Procedure: (§1) Cells were grown for 2 days in complete media and subsequently placed in low serum. The following day, cells were left untreated (0), treated with 5 μM RA (RA), 100 ng/ml EGF (EGF), or co-treated with 5 μM RA and 100 ng/ml EGF (RA/EGF) for 2 days and then lysed. In FIG. 9A, the cell extracts were used to determine TG GTP-binding activities (GTP-TGase) using an affinity-labeling assay with radioactive GTP as outlined in Example 11. Western blot analysis using TG and actin antibodies was performed to assess the expression levels of each of these proteins (TGase and actin). In FIG. 9B, the same cell lysates were assayed for TG transamidation activities as determined by the incorporation of 5-(biotin-amido) pentylamine into proteins as described in Example 12. The experiments were conducted in triplicate, quantitated, and the values from each experiment were averaged together and plotted. In FIG. 9C, SKBR3 cells were seeded at 1×10^5 cells/well and grown in low serum medium +/−5 μM RA and +/−100 ng/ml EGF for the times indicated and then counted. The results from three independent growth assays were averaged together and plotted.
Photoaffinity labeling of TG was performed by incubating whole cell lysates with 5 μCi of [α-^32P]GTP in 50 mM Tris-HCl, pH 7.4, 2 mM EGTA, 1 mM DTT, 20% (w/v) glycerol, 100 mM NaCl, and 500 μM AMP-PNP for 10 minutes at room temperature. […]

[4] = system: tissue transglutaminase (TG); assay: TG transamidation assay (incorporation of 5-(biotin-amido) pentylamine) in SKBR3 cell extracts; details: SKBR3 cells, EGF compared with RA; FIG. 9A-B
Procedure: as §1
TG transamidation assays were performed as previously described with slight modifications. 15 μg of whole cell extracts were incubated in a buffer containing 2 mM 5-(biotin-amido) pentylamine, 40 mM CaCl2, and 40 mM DTT for 20 minutes. […]

SKBR3 cells [5] = assay: Cell growth assay; details: low serum medium, 5 μM RA or 100 ng/ml EGF, up to 6 days; FIG. 9C
Procedure: as §1
Cells were seeded at 1×10^5 cells/well and grown in medium containing 0.5% serum +/−5 μM RA and +/−100 ng/ml EGF. Every 2 days the medium was changed. At 0, 2, 4, and 6 days of treatment, the cells were collected and counted.

[6] = system: tissue transglutaminase (TG); assay: TG expression and activation in MDAMB231 cells (Western blot, GTP-binding, transamidation); details: growth factor (EGF) stimulation, FIG. 9A-B
Procedure: as §1
Total cell lysates from each sample were combined with Laemmli sample buffer, boiled, and subjected to SDS-polyacrylamide gel electrophoresis (PAGE). […]

B1: EGF: epidermal growth factor, a known mitogen and survival factor (protein, UniProt P01133 23-1207, looked up)
Pro-epidermal growth factor: PQHWSCPEGTLAGNGNSTCVGPAPFLIFSHGNSIFRIDTEGTNYEQLVVDAGVSVIMDFHYNEKRIYWVDLERQLLQRVFLNGSRQERVCNIEKNVSGMAINWINEEVIWSNQQEGIITVTDMKGNNSHILLSALKYPANVAVDPVERFIFWSSEVAGSLYRADLDGVGVKALLETSEKITAVSLDVLDKRLFWIQYNREGSNSLICSCDYDGGSVHISKHPTQHNLFAMSLFGDRIFYSTWKMKTIWIANKHTGKDMVRINLHSSFVPLGELKVVHPLAQPKAEDDTWEPEQKLCKLRKGNCSSTVCGQDLQSHLCMCAEGYALSRDRKYCEDVNECAFWNHGCTLGCKNTPGSYYCTCPVGFVLLPDGKRCHQLVSCPRNVSECSHDCVLTSEGPLCFCPEGSVLERDGKTCSGCSSPDNGGCSQLCVPLSPVSWECDCFPGYDLQLDEKSCAASGPQPFLLFANSQDIRHMHFDGTDYGTLLSQQMGMVYALDHDPVENKIYFAHTALKWIERANMDGSQRERLIEEGVDVPEGLAVDWIGRRFYWTDRGKSLIGRSDLNGKRSKIITKENISQPRGIAVHPMAKRLFWTDTGINPRIESSSLQGLGRLVIASSDLIWPSGITIDFLTDKLYWCDAKQSVIEMANLDGSKRRRLTQNDVGHPFAVAVFEDYVWFSDWAMPSVMRVNKRTGKDRVRLQGSMLKPSSLVVVHPLAKPGADPCLYQNGGCEHICKKRLGTAWCSCREGFMKASDGKTCLALDGHQLLAGGEVDLKNQVTPLDILSKTRVSEDNITESQHMLVAEIMVSDQDDCAPVGCSMYARCISEGEDATCQCLKGFAGDGKLCSDIDECEMGVPVCPPASSKCINTEGGYVCRCSEGYQGDGIHCLDIDECQLGEHSCGENASCTNTEGGYTCMCAGRLSEPGLICPDSTPPPHLREDDHHYSVRNSDSECPLSHDGYCLHDGVCMYIEALDKYACNCVVGYIGERCQYRDLKWWELRHAGHGQQQKVIVVAVCVVVLVMLLLLSLWGAHYYRTQKLLSKNPKNPYEESSRDVRSRRPADTEDGMSSCPQPWFVVIKEHQDLKNGGQPVAGEDGQAADGSMQPTSWRQEPQLCGMGTEQGCWIPVSSDKGSCPQVMERSFHMPSYGTQTLEGGVEKPHSLLSANPLWQQRALDPPHQMELTQ
modifications: Pro-epidermal growth factor
B1 was tested, and the “reduction in the rate of apoptosis” value (SKBR3 cells [1]) was 50%, the TG expression [2] was “up-regulated TG expression” and the “TG GTP-binding activity” value [3] was “increased GTP-binding”. The “GTP-binding and enzymatic (transamidation) activity of TG” value [4] was “more effective than RA”, the “growth of SKBR3 cells” value (SKBR3 cells [5]) was “did not impede the growth” and the “constitutive level of TG expression or activation” value [6] was “did not alter the constitutive level of TG expression or activation”.
